Data on 15 molecules can be found in US5854216A, “Marker for growth hormone-releasing factor receptors” (Universite de Montreal, priority 1996, dated 1998).

Read-outs that look alike come from different tables or passages of the source. Ends that are not written are not given here. * marks the point of attachment. FITC = O=C1OC2(c3ccc(O)cc3Oc3cc(O)ccc32)c2ccc(NC(=S)*)cc21; X1 = O=C(O)c1cc(C(=O)*)ccc1-c1c2ccc(=O)cc-2oc2cc(O)ccc12

Data set [1] addresses T1, GRF receptors ([^125 I-Tyr^10 ]hGRF(1-44)NH2 binding sites in rat adenopituitary) (Rattus norvegicus, UniProt Q02644).
T1 construct: from tissue; host or cells: rat anterior pituitary homogenate
T1 sequence (Q02644 23-423 isoform Q02644-2 limits assumed): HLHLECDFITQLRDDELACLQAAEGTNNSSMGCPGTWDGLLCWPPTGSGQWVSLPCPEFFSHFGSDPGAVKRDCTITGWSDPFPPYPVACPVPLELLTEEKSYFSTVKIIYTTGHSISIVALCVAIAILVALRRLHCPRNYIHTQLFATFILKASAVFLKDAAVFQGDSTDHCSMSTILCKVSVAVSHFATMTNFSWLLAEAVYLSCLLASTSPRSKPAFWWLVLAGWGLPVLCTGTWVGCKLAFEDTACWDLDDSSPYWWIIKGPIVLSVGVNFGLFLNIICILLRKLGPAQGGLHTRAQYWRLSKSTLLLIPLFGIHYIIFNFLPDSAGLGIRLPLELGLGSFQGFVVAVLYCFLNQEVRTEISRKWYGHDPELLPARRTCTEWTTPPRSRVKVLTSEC
Briefly: Competitive binding assay with [^125 I-Tyr^10 ]hGRF(1-44)NH2 on anterior pituitary homogenates. Conditions: for Relative affinity: ratio IC50 of hGRF(1-29)NH2 /IC50 analogue. An outline of the steps: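 Rat anterior pituitary homogenates (70 to 75 μg protein) in 50 mM Tris-HCl pH 7.4 with 5 mM EDTA, 5 mM MgCl2, 0.42% BSA were competed with 35-50 pM radioligand against analogues at 0-1000 nM. Non-specific binding defined with 2.4 μM rGRF(1-29)NH2; 60 min at 23° C, stopped by centrifugation, pellet gamma-counted. hGRF(1-29)NH2 run in each experiment as reference.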

The target in data set [2] is T2, GRF receptor (adenylate cyclase activity in rat adenopituitary) (Rattus norvegicus, UniProt Q02644).
T2 construct: from tissue; host or cells: rat anterior pituitary homogenate
T2 sequence (Q02644 23-423 isoform Q02644-2 limits assumed): T1 sequence (Q02644 23-423 isoform Q02644-2 limits assumed)
Briefly: Adenylate cyclase assay on anterior pituitary homogenates (cAMP by HPLC). In kind it is biochemical. To be noted: for IC50: 50% of maximal cAMP accumulation induced by 1 μM hGRF(1-29)NH2; for Relative activity: ratio EC50 of hGRF(1-29)NH2 /EC50 analogue. The protocol: The adenylate cyclase activity Nε-CF-[Lys^31 ]hGRF was performed on anterior pituitary homogenates as previously described (Lefrangois L. and Gaudreau P., J. Chromatogr., 1993, 619:116-120). Briefly, anterior pituitaries (pit.) were dissected out, rinsed and homogenized for 8 sec with a Micro Ultrasonic Cell Disrupter™, in ice-cold 20 mM Tris-HCl buffer (pH 7.5) containing 2 mM MgCl2 and 250 mM sucrose (1 pit./0.5 ml).
Samples of anterior pituitary homogenates (30-40 μg protein) were incubated in 1.5 ml Eppendorf™ tubes with 30 mM Tris-HCl, 5 mM MgCl2, 0.5 mM EGTA, containing 0.5 mM ATP, 1 mM IBMX, 10 μM GTP and an ATP regenerating system consisting of 2 mM creatine phosphate, 0.1 mg/ml creatine kinase and, 0.1 mg/ml myokinase in a final volume of 120 μl. Incubations were initiated by adding 20 μl of the homogenate to the reaction mixture which had previously been equilibrated at 37° C. for 2 min. The reactions were carried out for 8 min at 37° C. and stopped by heating the samples in boiling water for 4 min. Samples were centrifuged (12000 g, 5 min, 4° C.) and supernatants were filtered through 0.45 μm Millex HV4 ™ filters and transferred to autosampler vials for HPLC quantification of cAMP.

In data set [3] the target is T3, GRF receptor of rat adenopituitary (rat, UniProt Q02644-2).
T3 sequence: T1 sequence (Q02644 23-423 isoform Q02644-2 limits assumed)

For data set [4], the target named is T3, GRF receptor of rat adenopituitary. Briefly: displacement of 125I-Tyr10 hGRF(1-44)NH2 from rat anterior pituitary homogenate. (In general: Displacement assays read how much labelled ligand stays bound in the presence of the test substance.)
Data set [5] is described as follows: Solubility in water or buffer. To be noted: distilled water or aqueous buffer. In kind it is physicochemical.
A short description of data set [6]: Storage stability / shelf life. In kind it is physicochemical.
Data set [7] in a line: Toxicity (statement only).
The target in data set [8] is T3, GRF receptor of rat adenopituitary. The source holds these as a separate data set.
Data set [9] shares this target. Briefly: displacement of 125I-Tyr10 hGRF(1-44)NH2 from rat anterior pituitary homogenate. On the procedure:
(§1) The binding of [^125I-Tyr^10]hGRF(1–44)NH_2 was performed on anterior pituitary homogenates as previously described (Gaudreau P. et al., J. Biol. Chem., 1992, 35:1864–1869). Briefly, anterior pituitaries (pit.) were dissected out, rinsed and homogenized for 8 sec with a Micro Ultrasonic Cell Disrupter™, in ice-cold 50 mM Tris-HCl buffer, pH 7.4, containing 5 mM MgCl_2 and 5 mM EDTA (1 pit./0.5 ml). These homogenates were used immediately. Competition studies were performed using 35–50 pM [^125I-Tyr^10]hGRF(1–44)NH_2 as radio-ligand, 50 µl of homogenate (70 to 75 µg of protein), and increasing concentrations of Nε-CF-[Lys^31]hGRF or other GRF analogues (0–1000 nM) or with 2.4 µM rGRF(1–29)NH_2 for determination of non-specific binding, in a total volume of 300 µl of Tris-HCl buffer, pH 7.4, containing 5 mM EDTA, 5 mM MgCl_2 and 0.42% BSA. Incubations were carried out at 23° C. for 60 min and stopped by centrifugation (12,000 g, 5 min, at 4° C.). The radioactivity content in the pellet was measured by gamma counting. The affinity of hGRF(1–29)NH_2 was tested in each experiment to assess the validity of the assay and determine the relative affinity of the analogues.
75 to 97% of their initial concentration are recovered at the end of the binding assay (Gaudreau P. et al., J. Biol. Chem., 1992, 35:1864–1869). The Ligand computerized program was used to analyse competition curves of all the GRF analogues reported in Tables 4, 7 and 11, and to determine their IC$50$ and Hill coefficient. The Hill values indicate that all these peptides bind to the high and low affinity GRF binding sites found in the anterior pituitary.
This is another data set of the same source.

Data set [10] has the same target. Described as above. On the procedure:
as §1
75 to 97% of their initial concentration are recovered at the end of the binding assay (Gaudreau P. et al., J. Biol. Chem., 1992, 35:1864–1869). […]
The source holds these as a separate data set.

Setting [11] is: Table 11, mean±SD of 2 or mean±SE of 3 experiments for analogues, mean±SE of 11 for hGRF(1-29)NH2.
Where [12] appears, read: Table 12, mean±SD of 2 or mean±SE of 3 to 6 experiments, 10 for hGRF(1-29)NH2.

What is called IC50 is the point on the concentration scale where inhibition reaches its midpoint. As to `CC[C@H](C)[C@H](NC(=O)[C@H](C)NC(=O)[C@H](CC(=O)O)NC(=O)[C@H](C)NC(=O)[C@@H](N)Cc1ccc(O)cc1)C(=O)N[C@@H](Cc1ccccc1)C(=O)N[C@H](C(=O)N[C@@H](CC(N)=O)C(=O)N[C@@H](CO)C(=O)N[C@@H](Cc1ccc(O)cc1)C(=O)N[C@@H](CCCNC(=N)N)C(=O)N[C@@H](CCCCN)C(=O)N[C@H](C(=O)N[C@@H](CC(C)C)C(=O)NCC(=O)N[C@@H](CCC(N)=O)C(=O)N[C@@H](CC(C)C)C(=O)N[C@@H](CO)C(=O)N[C@@H](C)C(=O)N[C@@H](CCCNC(=N)N)C(=O)N[C@@H](CCCCN)C(=O)N[C@@H](CC(C)C)C(=O)N[C@@H](CC(C)C)C(=O)N[C@@H](CCC(N)=O)C(=O)N[C@@H](CC(=O)O)C(=O)N[C@H](C(=O)N[C@@H](CCSC)C(=O)N[C@@H](CO)C(=O)N[C@@H](CCCNC(=N)N)C(N)=O)[C@@H](C)CC)C(C)C)[C@@H](C)O` [hGRF(1-29)NH2, reference compound], the IC50 is 2.67 ± 0.12 nM in data set [1] (Table 4, mean±SD of 2 experiments in triplicate for analogues, mean±SE of 29 experiments for hGRF(1-29)NH2) and 36.7 ± 5.5 nM in data set [2] (Table 5, mean±SD of 2 experiments (analogue), mean±SE of 10 (hGRF(1-29)NH2)).
As to “Ala^8,Ala^9,Ala^15,Ala^22 ! hGRF(1-29)NH2 (from UniProt P01286) (peptide)”, in data set [3], the adenylate cyclase activity: EC50 of cAMP accumulation (column head prints IC50) came out at 2.88 nM and the adenylate cyclase activity: Relative activity (%) against hGRF(1-29)NH2 came out at 1270%. The Relative affinity (%) against hGRF(1-29)NH2 in data set [4] was found to be 774%.
Take “Ala^8,Ala^15,Ala^22 ! hGRF(1-29)NH2 (from UniProt P01286) (peptide)”: the adenylate cyclase activity: Relative activity (%) against hGRF(1-29)NH2 in data set [3] stood at 1410%. In addition, the Relative affinity (%) against hGRF(1-29)NH2 in data set [4] was determined as 960%.
The like results for “D-Ala^2,D-Tyr^10,D-Ala^15 ! hGRF(1-29)NH2 (from UniProt P01286) (peptide)” were, in that order, 21% and 18%.
“D-Ala^2,D-Tyr^10,D-Ala^15,D-Lys^21 ! hGRF(1-29)NH2 (from UniProt P01286) (peptide)”: the adenylate cyclase activity: Relative activity (%) against hGRF(1-29)NH2 in [3] was found to be 27%. This molecule displayed a Relative affinity (%) against hGRF(1-29)NH2 in data set [4] of 8%.
Regarding “D-Ans^8,D-Leu^22 ! hGRF(1-29)NH2 (from UniProt P01286) (peptide)”, the adenylate cyclase activity: Relative activity (%) against hGRF(1-29)NH2 in [3] amounted to 55%. Besides, in data set [4], the Relative affinity (%) against hGRF(1-29)NH2 came to 49%.
In the case of “H-YADAIFTNSYRKVLGQLSARKLLQDIMSRQK(X1)GESNQERGARARL-NH2 [Nε-5-carboxyfluoresceinyl-[Lys^31]hGRF(1-44)NH2]”, in data set [1], the “affinity for adenopituitary GRF receptors (in words)” value is listed as “high affinity”. Moreover, in [1] (Table 4), the Hill coef. was determined as 0.55 ± 0.03 and the Relative affinity came out at 73 ± 27%. Moreover, the “agonist character at the GRF receptor” value in data set [2] is given as “full GRF receptor agonist”. Moreover, in data set [2] (Table 5), the Relative activity was 55 ± 36%. For the same molecule, in data set [5], the solubility result is reported as “freely soluble”. The shelf life result in [6] is on record as “at least one year”. In data set [6] (protected from light and maintained at 4° C.), the stability result is listed as “stable”. This molecule also gave a toxicity in [7] of 100% non-toxic.
With “Lys^22 ! hGRF(1-29)NH2 (from UniProt P01286) (peptide)”, in data set [3], the adenylate cyclase activity: EC50 of cAMP accumulation (column head prints IC50) is 2.63 nM and the adenylate cyclase activity: Relative activity (%) against hGRF(1-29)NH2 is 1400%. This molecule gave a Relative affinity (%) against hGRF(1-29)NH2 in [4] of 1040%.
Take “Nε-5-carboxyfluoresceinyl-Lys^31 !hGRF(1-44)NH2 (from UniProt P01286) (peptide)”: in [8], the adenylate cyclase activity: EC50 of cAMP accumulation (column head prints IC50) stood at 67 nM and the adenylate cyclase activity: Relative activity (%) against hGRF(1-29)NH2 was 55%. In data set [4], this molecule yielded a half-maximal inhibitory concentration (IC50) of 3.65 nM and a Relative affinity (%) against hGRF(1-29)NH2 of 73%.
Take “YADAIFTAAYRKVLAQLSARKALQDIMSR-NH2 [Ala^8, Ala^9, Ala^15, Ala^22]”: the IC50 in [1] (setting [11]) was found to be 0.31 ± 0.14 nM; in [2] (setting [12]), 2.88 ± 1.01 nM.
The like results for “YADAIFTASYRKVLAQLSARKALQDIMSR-NH2 [Ala^8, Ala^15, Ala^22]” were, in that order, 0.25 ± 0.07 nM and 2.6 ± 0.7 nM.
Turning to “YADAIFTNSYRKVLGQLSARKKLQDIMSR-NH2 [Lys^22]”, in data set [1] (Table 11), the Hill coef. is given as 0.62 ± 0.06 and the Relative affinity is 1043 ± 181%. The same molecule yielded a concentration for half-maximal inhibition (IC50) in [1] (setting [11]) of 0.23 ± 0.04 nM. For the same molecule, the “biological activity compared to that of native GRF” value in data set [1] (rat adenopituitary) is recorded as “preserved or increased”. The same molecule showed a half-inhibitory concentration (IC50) in data set [2] (setting [12]) of 2.63 ± 0.64 nM. The Relative activity in [2] (Table 12) is 1395 ± 339%.

B1: hGRF(1-29)NH2 (ligand)
peptide: YADAIFTNSYRKVLGQLSARKLLQDIMSR-NH2
With B1, in [8], the adenylate cyclase activity: EC50 of cAMP accumulation (column head prints IC50) was 36.7 nM and the adenylate cyclase activity: Relative activity (%) is 100%. Moreover, the “Relative affinity (%) against hGRF(1-29)NH2” value (from here on “Relative affinity (%)”) in data set [9] was found to be 100%. In addition, the concentration for half-maximal inhibition (IC50) in data set [10] is 2.4 nM.

B2: Nα-fluorescein-5-thiocarbamyl!hGRF(1-29)NH2 (peptide)
peptide: {FITC}-YADAIFTNSYRKVLGQLSARKLLQDIMSR-NH2
Turning to B2, in [9], the IC50 was 14 nM and the “Relative affinity (%)” value came out at 19%.

B3: Nα-fluorescein-5-thiocarbamyl!hGRF(1-44)NH2 (peptide)
peptide: {FITC}-YADAIFTNSYRKVLGQLSARKLLQDIMSRQQGESNQERGARARL-NH2
With B3, the “Relative affinity (%)” value in data set [9] is 19%.
